B1: sTNFRSF14: Pro37-Val202 soluble HVEM ectodomain polypeptide of SEQ ID NO. 6 (protein, listed as Homo sapiens)
chain: PALPSCKEDEYPVGSECCPKCSPGYRVKEACGELTGTVCEPCPPGTYIAHLNGLSKCLQCQMCDPAMGLRASRNCSRTENAVCGCSPGHFCIVQDGDHCAACRAYATSSPGQRVQKGGTESQDTLCQNCPPGTFSPNGTLEECQHQTKCSWLVTKAGAGTSSSHWV

What was measured:
DOHH2 cells = assay: BTK, SYK and ERK activation in anti-IgG-stimulated DOHH2 cells; type: cell-based, human
Protocol: (§1) FIG. 7A-H. The solHVEM (either Leu39-Va1202 or Pro37-Va1202) protein restores tumor suppressive effects of HVEM.
FIG. 14A-E. Effect of solHVEM (either Leu39-Va1202 or Pro37-Va1202) on murine and human FL B cells. FIG. 14A and FIG. 14B, Quantification of pSYK levels in DOHH2 lymphoma cells that were stimulated with anti-IgG in the presence or absence of Pro37-Va1202 solHVEM (5 μg/ml) (* indicated p<0.01); representative FACS measurement in (FIG. 14B) FIG. 14C, FACS analysis of BTLA expression in a panel of lymphoma lines including murine myc/bc12 lymphomas and human lines (DOHH2, Su-DHL6, Granta, Ly10); FIG. 14D, representative pictures of tumors from mice; FIG. 14E, tumor weight of mouse tumors (n=3, p<0.01).
FIG. 15A-B. sTNFRSF14 opposes B cell receptor signaling in lymphoma B cells by decreasing P-BTK. A B-cell lymphoma cell line (DOHH2) was pre-treated for one hour with the soluble ectodomain of TNFRSF14 (sTNFRSF14) Pro 37-Val 202 (5 ug/ml) or the BTK inhibitor Ibrutinib (10nmM) and then stimulated for 5 mins at 37° C. with anti-IgG molecule. The cells were subsequently fixed and permeabilized and probed for pBTK expression using phospo-flow antibodies and analyzed on BD Fortessa. FIG. 15A, Representative FACS plots. FIG. 15B, Quantification of mean fluorescence intensity of phospho-BTK after treatment with vehicle or drug.
FIG. 16A-B. sTNFRSF14 opposes B-cell receptor signaling in lymphoma B cells by decreasing P-SYK. A B-cell lymphoma cell line (DOHH2) was pre-treated for one hour with the soluble ectodomain of TNFRSF14 (sTNFRSF14) Pro37-Val 202 (5 ug/ml) or the BTK inhibitor Ibrutinib (10nmM) and then stimulated for 5 mins at 37° C. with anti-IgG molecule. The cells were subsequently fixed and permeabilized and probed for pSYK expression using phospo-flow antibodies and analyzed on a BD Fortessa. FIG. 16A, Representative FACS plots. FIG. 16B, Quantification of mean fluorescence intentisty of phospho-SYK after treatment with vehicle or drug.
(§2) Building on these findings, experiments were performed to test whether solHVEM would have any single agent activity against lymphomas. First, the expression of the BTLA receptor was characterized across a panel of human and mouse lymphoma (mostly DLBCL) cell lines. […] Next, experiments were performed to test if solHVEM had any effect on established BTLA^hi lymphomas in vivo. Briefly, aggressive MYC/BCL2 double positive murine lymphoma cells that express BTLA (BTLA^hi) were transplanted into the flanks of J:Nu nude mice and mice were treated with 20 μg of solHVEM or vehicle (PBS) every three days for a total four times once the engrafted tumors reached a volume of ˜50 mm3. […] Similar results were obtained both in vitro and in vivo with a different soluble HVEM molecule consisting of the extracellular region from amino acids Pro37 to Va1202 (SEQ ID NO. 6).
For phospho-BTK, phospho-Syk staining, cells were pretreated for 60 min with either 5 μg/mL of sHVEM (R&D Systems) or 10 ng/mL Ibrutinib (ChemieTek PCI-32765) at 37° C. Cells were fixed by adding equal volume of formaldehyde directly to the cells. Cells were incubated for 10 minutes at room temperature, washed 2× in PBS and the residual cells were permeabilized in 1 mL of ice cold methanol (100%) for 30 min on ice. Cells were then washed twice and stained with the phospho-BTK (Bd Biosciences clone N35-88) and phospho-Syk (Bd Biosciences clone 17 A/P-Zap70) and analyzed on BD LSRFortessa. […]

[1] = system: MYC/BCL2 double positive murine lymphoma cells; assay: In vivo treatment of engrafted myc-bcl2 murine lymphomas by intratumoral injection; design: species or system J:Nu nude mice
Protocol: as §1
FIG. 20. sTNFRSF14 inhibits tumor growth in vivo. Xenograft myc-bc12 lymphomas were grown in the flanks of mice. When the tumors reached a volume of approximately 0.5 cm^3 mice were treated every other day by intra-tumoral injection in the flanks with 20 ug/ml of sTNFRSF14diluted in PBS. The control (vehicle) animals were treated with PBS. Tumors were weighed and volumes were measured twice weekly.
FIG. 21. sTNFRSF14 decreases lymphoma growth in a xenograft model. 5 million myc-Bcl2 cells were mixed with Matrigel and injected subcutaneously into the flanks of mice J:Nu Nude (Foxn1 nu/Foxn1 nu) mice. Animals were sacrificed according to IUCAC protocols. Upon sacrifice tumors were weighed and measured.
FIG. 22. Exogenous administration of sTNFRSF14 suppresses mouse lymphoma xenografts. Animals were sacrificed on day day 11 and the xenografted tumors were excised from the flanks of the mice. The tumors from each flank—treated (sTNFRSF14) and untreated (vehicle) were weighed. Bars represent the average of n=4 mice.
FIG. 24. Immunohistochemical analysis of xenograft tumors. Pathological analysis of sTNFRSF14 treated and vehicle treated mouse lymphomas. Tumors were excised from the flanks of the animals and fixed in 4% paraformaldehyde overnight. The tumors were sectioned and stained via IHC for particular tumor markers. Representative staining for HE, TUNEL, and Ki67 is shown.
as §2
Transplant and treatment studies were generated as previously described (Schatz et al., 2011). In summary, subcutaneous injection of one million myc-bcl2 mouse lymphoma cells combined with Matrigel (BD) in the right and left flanks of mice J:Nu Nude (Foxn1 nu/Foxn1 nu). Once tumors reached 75-mm3 mice were treated every three days by intra tumor injection with 20 m of sHVEM diluted in PBS (right flank) or with vehicle control (left flank). Tumor sizes were measured and recorded every three days. Tumors were weighed after the animals were sacrificed and tumors excised.
To study the effects of the sTNFRSF14 polypeptide in vivo, five (5) million myc-bc12 cells were injected into both the right and left flanks of nude mice. Upon formation of palpable tumors treatment was commenced. The treatment comprise injecting mice intra-tumorally with either 20 ug of sTNFRSF14 on the right flank or vehicle on the left flank.

[2] = DOHH2 (BTLAhi, HVEM deleted), 10 μg/ml
[3] = 20 μg intratumoral every three days
[4] = compared to vehicle-treated tumors

Molecule	ERK activation (DOHH2 cells; [2])	SYK activation (DOHH2 cells; [2])	ERK inhibition in tumors by immunoblot [1, 3]	apoptosis by TUNEL stain in tumors [1, 3]	tumor growth ([1]; 20 μg intratumoral every three days, four times, n=4, p<0.01)	BTK activation (DOHH2 cells; [2])	activation (phosphorylation) of BTK (DOHH2 cells; DOHH2, one hour pre-incubation, 5 ug/ml, anti-IgG)	levels of phosphorylated SYK (DOHH2 cells; DOHH2, one hour pre-treatment, 5 ug/ml, anti-IgG)	tumor growth ([1]; 20 ug intra-tumoral, right flank, vehicle left flank)	tumor weight ([1]; 11 days after treatment initiation, average, 20 ug intra-tumoral) [grams]	TUNEL staining in tumors [1, 4]	levels of phosphorylated ERK in tumors [1, 4]	proliferation marker Ki67 in tumors [1, 4]
solHVEM: Leu39-Val202 soluble HVEM ectodomain polypeptide of SEQ ID NO. 8	readily blocked	readily blocked	ERK inhibition	abundant apoptosis	prevented any further tumor growth	–	–	–	–	–	–	–	–
B1	–	–	–	–	–	readily blocked	effectively blocked	inhibited	near complete growth delay	0.75	higher levels	reduced levels	decrease
